What was measured:
[1] = target: T1, HMK-His6-σ70, 32P-labeled (pHMK-His6-σ70) (Escherichia coli, UniProt P00579 1-613); assay: far-Western binding, 32P-σ70 probe; grade
T1 construct: range 1-613; also called ^32P-labeled ?^70; HMK-?^70

[2] = target: T2, σ70, native, untagged (pLN12) (Escherichia coli, UniProt P00579 1-613); assay: Ni-NTA co-immobilization, SDS-PAGE
T2 construct: range 1-613; also called native ?^70

[3] = target: T1, HMK-His6-σ70, 32P-labeled …; assay: far-Western of whole cell lysate, 32P-σ70 probe

B1: β′1-319 wild type, untagged (pTA620) (enzyme)
chain: MKDLLKFLKAQTKTEEFDAIKIALASPDMIRSWSFGEVKKPETINYRTFKPERDGLFCARIFGPVKDYECLCGKYKRLKHRGVICEKCGVEVTQTKVRRERMGHIELASPTAHIWFLKSLPSRIGLLLDMPLRDIERVLYFESYVVIEGGMTNLERQQILTEEQYLDALEEFGDEFDAKMGAEAIQALLKSMDLEQECEQLREELNETNSETKRKKLTKRIKLLEAFVQSGNKPEWMILTVLPVLPPDLRPLVPLDGGRFATSDLNDLYRRVINRNNRLKRLLDLAAPDIIVRNEKRMLQEAVDALLDNGRRGRAITGS
binding result [1]: binds

B2: β′1-319 Y269A (pTA611) (enzyme)
chain: MKDLLKFLKAQTKTEEFDAIKIALASPDMIRSWSFGEVKKPETINYRTFKPERDGLFCARIFGPVKDYECLCGKYKRLKHRGVICEKCGVEVTQTKVRRERMGHIELASPTAHIWFLKSLPSRIGLLLDMPLRDIERVLYFESYVVIEGGMTNLERQQILTEEQYLDALEEFGDEFDAKMGAEAIQALLKSMDLEQECEQLREELNETNSETKRKKLTKRIKLLEAFVQSGNKPEWMILTVLPVLPPDLRPLVPLDGGRFATSDLNDLARRVINRNNRLKRLLDLAAPDIIVRNEKRMLQEAVDALLDNGRRGRAITGS
binding result [1]: binds

B3: β′ mutant E301P (enzyme)
chain: MKDLLKFLKAQTKTEEFDAIKIALASPDMIRSWSFGEVKKPETINYRTFKPERDGLFCARIFGPVKDYECLCGKYKRLKHRGVICEKCGVEVTQTKVRRERMGHIELASPTAHIWFLKSLPSRIGLLLDMPLRDIERVLYFESYVVIEGGMTNLERQQILTEEQYLDALEEFGDEFDAKMGAEAIQALLKSMDLEQECEQLREELNETNSETKRKKLTKRIKLLEAFVQSGNKPEWMILTVLPVLPPDLRPLVPLDGGRFATSDLNDLYRRVINRNNRLKRLLDLAAPDIIVRNEKRMLQPAVDALLDNGRRGRAITGS
binding result [1]: no binding

B4: β′1-319 K280E (pTA613) (enzyme)
chain: MKDLLKFLKAQTKTEEFDAIKIALASPDMIRSWSFGEVKKPETINYRTFKPERDGLFCARIFGPVKDYECLCGKYKRLKHRGVICEKCGVEVTQTKVRRERMGHIELASPTAHIWFLKSLPSRIGLLLDMPLRDIERVLYFESYVVIEGGMTNLERQQILTEEQYLDALEEFGDEFDAKMGAEAIQALLKSMDLEQECEQLREELNETNSETKRKKLTKRIKLLEAFVQSGNKPEWMILTVLPVLPPDLRPLVPLDGGRFATSDLNDLYRRVINRNNRLERLLDLAAPDIIVRNEKRMLQEAVDALLDNGRRGRAITGS
binding result [1]: binds

B5: β′1-319 N309D (pTA619) (enzyme)
chain: MKDLLKFLKAQTKTEEFDAIKIALASPDMIRSWSFGEVKKPETINYRTFKPERDGLFCARIFGPVKDYECLCGKYKRLKHRGVICEKCGVEVTQTKVRRERMGHIELASPTAHIWFLKSLPSRIGLLLDMPLRDIERVLYFESYVVIEGGMTNLERQQILTEEQYLDALEEFGDEFDAKMGAEAIQALLKSMDLEQECEQLREELNETNSETKRKKLTKRIKLLEAFVQSGNKPEWMILTVLPVLPPDLRPLVPLDGGRFATSDLNDLYRRVINRNNRLKRLLDLAAPDIIVRNEKRMLQEAVDALLDDGRRGRAITGS
binding result [1]: binds

B6: β′ mutant N274P (enzyme)
chain: MKDLLKFLKAQTKTEEFDAIKIALASPDMIRSWSFGEVKKPETINYRTFKPERDGLFCARIFGPVKDYECLCGKYKRLKHRGVICEKCGVEVTQTKVRRERMGHIELASPTAHIWFLKSLPSRIGLLLDMPLRDIERVLYFESYVVIEGGMTNLERQQILTEEQYLDALEEFGDEFDAKMGAEAIQALLKSMDLEQECEQLREELNETNSETKRKKLTKRIKLLEAFVQSGNKPEWMILTVLPVLPPDLRPLVPLDGGRFATSDLNDLYRRVIPRNNRLKRLLDLAAPDIIVRNEKRMLQEAVDALLDNGRRGRAITGS
binding result [1]: no binding

B7: β′1-319 N266D (pTA610) (enzyme)
chain: MKDLLKFLKAQTKTEEFDAIKIALASPDMIRSWSFGEVKKPETINYRTFKPERDGLFCARIFGPVKDYECLCGKYKRLKHRGVICEKCGVEVTQTKVRRERMGHIELASPTAHIWFLKSLPSRIGLLLDMPLRDIERVLYFESYVVIEGGMTNLERQQILTEEQYLDALEEFGDEFDAKMGAEAIQALLKSMDLEQECEQLREELNETNSETKRKKLTKRIKLLEAFVQSGNKPEWMILTVLPVLPPDLRPLVPLDGGRFATSDLDDLYRRVINRNNRLKRLLDLAAPDIIVRNEKRMLQEAVDALLDNGRRGRAITGS
binding result [1]: binds

B8: β′ mutant V272D (enzyme)
chain: MKDLLKFLKAQTKTEEFDAIKIALASPDMIRSWSFGEVKKPETINYRTFKPERDGLFCARIFGPVKDYECLCGKYKRLKHRGVICEKCGVEVTQTKVRRERMGHIELASPTAHIWFLKSLPSRIGLLLDMPLRDIERVLYFESYVVIEGGMTNLERQQILTEEQYLDALEEFGDEFDAKMGAEAIQALLKSMDLEQECEQLREELNETNSETKRKKLTKRIKLLEAFVQSGNKPEWMILTVLPVLPPDLRPLVPLDGGRFATSDLNDLYRRDINRNNRLKRLLDLAAPDIIVRNEKRMLQEAVDALLDNGRRGRAITGS
binding result [1]: no binding

B9: β′ mutant L299D (enzyme)
chain: MKDLLKFLKAQTKTEEFDAIKIALASPDMIRSWSFGEVKKPETINYRTFKPERDGLFCARIFGPVKDYECLCGKYKRLKHRGVICEKCGVEVTQTKVRRERMGHIELASPTAHIWFLKSLPSRIGLLLDMPLRDIERVLYFESYVVIEGGMTNLERQQILTEEQYLDALEEFGDEFDAKMGAEAIQALLKSMDLEQECEQLREELNETNSETKRKKLTKRIKLLEAFVQSGNKPEWMILTVLPVLPPDLRPLVPLDGGRFATSDLNDLYRRVINRNNRLKRLLDLAAPDIIVRNEKRMDQEAVDALLDNGRRGRAITGS
binding result [1]: no binding

B10: His6-tagged β′33-309 (pTA531) (enzyme)
chain: WSFGEVKKPETINYRTFKPERDGLFCARIFGPVKDYECLCGKYKRLKHRGVICEKCGVEVTQTKVRRERMGHIELASPTAHIWFLKSLPSRIGLLLDMPLRDIERVLYFESYVVIEGGMTNLERQQILTEEQYLDALEEFGDEFDAKMGAEAIQALLKSMDLEQECEQLREELNETNSETKRKKLTKRIKLLEAFVQSGNKPEWMILTVLPVLPPDLRPLVPLDGGRFATSDLNDLYRRVINRNNRLKRLLDLAAPDIIVRNEKRMLQEAVDALLDN
binding result [2]: binds

B11: β′100-309, untagged (pTA530) (enzyme)
chain: ERMGHIELASPTAHIWFLKSLPSRIGLLLDMPLRDIERVLYFESYVVIEGGMTNLERQQILTEEQYLDALEEFGDEFDAKMGAEAIQALLKSMDLEQECEQLREELNETNSETKRKKLTKRIKLLEAFVQSGNKPEWMILTVLPVLPPDLRPLVPLDGGRFATSDLNDLYRRVINRNNRLKRLLDLAAPDIIVRNEKRMLQEAVDALLDN
binding result [3]: binds

B12: His6-tagged β′100-309 (pTA533) (enzyme)
chain: ERMGHIELASPTAHIWFLKSLPSRIGLLLDMPLRDIERVLYFESYVVIEGGMTNLERQQILTEEQYLDALEEFGDEFDAKMGAEAIQALLKSMDLEQECEQLREELNETNSETKRKKLTKRIKLLEAFVQSGNKPEWMILTVLPVLPPDLRPLVPLDGGRFATSDLNDLYRRVINRNNRLKRLLDLAAPDIIVRNEKRMLQEAVDALLDN
binding result [2]: binds

B13: His6-HMK-β′1-300 (pTA524) (enzyme)
chain: MKDLLKFLKAQTKTEEFDAIKIALASPDMIRSWSFGEVKKPETINYRTFKPERDGLFCARIFGPVKDYECLCGKYKRLKHRGVICEKCGVEVTQTKVRRERMGHIELASPTAHIWFLKSLPSRIGLLLDMPLRDIERVLYFESYVVIEGGMTNLERQQILTEEQYLDALEEFGDEFDAKMGAEAIQALLKSMDLEQECEQLREELNETNSETKRKKLTKRIKLLEAFVQSGNKPEWMILTVLPVLPPDLRPLVPLDGGRFATSDLNDLYRRVINRNNRLKRLLDLAAPDIIVRNEKRMLQ
notes: range 1-300
binding result [2]: no binding

B14: β′60-309, untagged (pTA528) (enzyme)
chain: RIFGPVKDYECLCGKYKRLKHRGVICEKCGVEVTQTKVRRERMGHIELASPTAHIWFLKSLPSRIGLLLDMPLRDIERVLYFESYVVIEGGMTNLERQQILTEEQYLDALEEFGDEFDAKMGAEAIQALLKSMDLEQECEQLREELNETNSETKRKKLTKRIKLLEAFVQSGNKPEWMILTVLPVLPPDLRPLVPLDGGRFATSDLNDLYRRVINRNNRLKRLLDLAAPDIIVRNEKRMLQEAVDALLDN
binding result [3]: binds

B15: His6-tagged β′60-309 (pTA532) (enzyme)
chain: RIFGPVKDYECLCGKYKRLKHRGVICEKCGVEVTQTKVRRERMGHIELASPTAHIWFLKSLPSRIGLLLDMPLRDIERVLYFESYVVIEGGMTNLERQQILTEEQYLDALEEFGDEFDAKMGAEAIQALLKSMDLEQECEQLREELNETNSETKRKKLTKRIKLLEAFVQSGNKPEWMILTVLPVLPPDLRPLVPLDGGRFATSDLNDLYRRVINRNNRLKRLLDLAAPDIIVRNEKRMLQEAVDALLDN
binding result [2]: binds

B16: His6-tagged β′200-309 (pTA538) (enzyme)
chain: QLREELNETNSETKRKKLTKRIKLLEAFVQSGNKPEWMILTVLPVLPPDLRPLVPLDGGRFATSDLNDLYRRVINRNNRLKRLLDLAAPDIIVRNEKRMLQEAVDALLDN
binding result [2]: binds

B17: His6-HMK-β′1-280 (pTA523) (enzyme)
chain: MKDLLKFLKAQTKTEEFDAIKIALASPDMIRSWSFGEVKKPETINYRTFKPERDGLFCARIFGPVKDYECLCGKYKRLKHRGVICEKCGVEVTQTKVRRERMGHIELASPTAHIWFLKSLPSRIGLLLDMPLRDIERVLYFESYVVIEGGMTNLERQQILTEEQYLDALEEFGDEFDAKMGAEAIQALLKSMDLEQECEQLREELNETNSETKRKKLTKRIKLLEAFVQSGNKPEWMILTVLPVLPPDLRPLVPLDGGRFATSDLNDLYRRVINRNNRLK
notes: range 1-280
binding result [2]: no binding

B18: His6-tagged β′178-309 (pTA537) (enzyme)
chain: AKMGAEAIQALLKSMDLEQECEQLREELNETNSETKRKKLTKRIKLLEAFVQSGNKPEWMILTVLPVLPPDLRPLVPLDGGRFATSDLNDLYRRVINRNNRLKRLLDLAAPDIIVRNEKRMLQEAVDALLDN
binding result [2]: binds

B19: β′260-309 with C-terminal His6 (pTA546) (enzyme)
chain: FATSDLNDLYRRVINRNNRLKRLLDLAAPDIIVRNEKRMLQEAVDALLDNHHHHHH
binding result [2]: binds
